Measured values from PMC11892609.

B1: WT mTMIE-HA-Avi [mouse] / Fyn-mTMC2-mCherry [mouse] (parent)
chain 1: QLVEPSTAPPKPKPPPLTKETVVFWDMRLWHVVGIFSLFVLSIIITLCCVFNCRVPRTRKEIEARYLQRKAAKMYTDKLETVPPLNELTEIPGEDKKKKKKDSVDTVAIKVEEDEKNEAKKKGEK
chain 2: MSPQLKSLDEEGDKSARRPTRKQTSRAACPQDGHRAQSSRKDPAKGSPRPGSSRKKQMEHGSYHKGLQGQKPRKVERSLQGRKKDRRTSLKEQRASPKKEREALRKEAGKQLRKPRSTSLGSSVSTGDSLSEEELAQILEQVEEKKKLITTVRNKPWPMAKKLRELREAQAFVEKYEGALGKGKGKHLYAYRMMMAKKWVKFKRDFDNFKTQCIPWEMKIKDIESHFGSSVASYFIFLRWMYGVNLVLFGLIFGLVIIPEVLMGMPYGSIPRKTVPRAEEERAMDFSVLWDFEGYIKYSALFYGYYNNQRTIGWLRYRLPMAYFMVGVSVFGYSLMIVIRSMASNTQGSTSEGDSDSFTFSFKMFTSWDYLIGNSETADNKYVSITTSFKESIVDEQESNKEGNIHLTRFLRVLANFLILCCLCGSGYLIYFVVKRSQEFSKMQNVSWYERNEVEIVMSLLGMFCPPLFETIAALENYHPRTGLKWQLGRIFALFLGNLYTFLLALMDDVHLKLSNEEKIKNITHWTLFNYYNSSGGNESVPRPPPHPADVPRGSCWETAVGIEFMRLTVSDMLVTYLTILVGDFLRACFVRFMNHCWCWDLEAGFPSYAEFDISGNVLGLIFNQGMIWMGSFYAPGLVGINVLRLLTSMYFQCWAVMSSNVPHERVFKASRSNNFYMGLLLLVLFLSLLPVAYTVMSLPPSFDCGPFSGKNRMYDVLHETIENDFPKFLGKIFAFLANPGLIIPAILLMFLAIYYLNSVSKSLSRANAQLRKKIQALREVEKNHKSIKGKAIVTYSEDTIKNSSKNATQIHLTKEEPTSHSSSQIQTLDKKAQGPHTSSTEGGASPSTSWHHVGSQPPRGRRDSGQPQSQTYTGRSPSGKRTQRPHN

Variants of: B1
Experiment: pull-down with NeutrAvidin beads, western blot quantification
Conditions: PK-HEK293T cells co-expressing Fyn-mTMC2-mCherry and mTMIE-HA-Avi, three experiments, parent: 1, read off a plot

Variant | ratio to parent
chain 1 QLVEPSTAPPKPKPPPLTKETVVFWDMRLWHVVGIFSLFVLSIIITLSSVFNCRVPRTRKEIEARYLQRKAAKMYTDKLETVPPLNELTEIPGEDKKKKKKDSVDTVAIKVEEDEKNEAKKKGEK [chain 1 C48S C49S] | 1.7
